± gives the uncertainty stated by the source.
Test: protein stability index of a GFP-peptide fusion (yeast GPS) (PSI 1-4); higher = more stable; sorted into four equal gates, so the index is relative within each strain
How it was run: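 Peptides tiling yeast proteins in 17-residue segments were fused downstream of GFP, with Cherry expressed from the same plasmid. As a pooled library in yeast, mid-log cultures grown in leucine-free medium were sorted into four equal gates by GFP/Cherry fluorescence ratio. Gate plasmids were PCR-amplified and Illumina-sequenced, and barcodes linked reads to strains. Each peptide received a protein stability index equal to the sum of each gate's read frequency times its gate number.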

Row | Sequence | protein stability index (doa10∆) | protein stability index (pdr5∆) | protein stability index (ubr1∆) | protein stability index (san1∆)
1 | FQVSNVISLGPNLATFI [YJL039C/NUP192] | 1.76 ± 0.14 | 1.99 ± 0.11 | 2.17 ± 0.054 | –
2 | FREAIVATEPLLDILVK [PRP8] | 1.86 ± 0.047 | 2.16 ± 0.043 | 1.54 ± 0.031 | 1.96 ± 0.1
3 | FRENMSKEETVDFIKHS [PRE3] | 3.11 ± 0.086 | 3.19 ± 0.086 | 3.24 ± 0.085 | 3.16 ± 0.066
4 | FRFDSIQRETLLPTNNG [GRR1] | 2.59 ± 0.047 | 2.67 ± 0.053 | 2.92 ± 0.033 | 2.69 ± 0.04
5 | FRGARKNKGLVVSPYDY [DIB1] | 2.58 ± 0.077 | 2.54 ± 0.088 | 2.82 ± 0.081 | 2.53 ± 0.09
6 | FRKIKLRVDEVQGKNLL [RPS1A] | 2.96 ± 0.12 | 3.48 ± 0.12 | 3.36 ± 0.065 | 2.93 ± 0.13
7 | FSEGTSADREIQRTLME [RPT4] | 3.41 ± 0.14 | 3.46 ± 0.084 | 3.1 ± 0.087 | 3.29 ± 0.091
8 | FSERAAMFAALQQKQQQ [SWI1] | 1.7 ± 0.042 | 2.15 ± 0.042 | 2.01 ± 0.027 | 2.05 ± 0.078
9 | FSSPAALMKTLIKFVDL [NUT1] | 1.98 ± 0.083 | 1.68 ± 0.057 | 1.78 ± 0.12 | 1.95 ± 0.12
10 | FSWGRPADSTYGAYNTQ [PRE4] | 2.75 ± 0.081 | 2.68 ± 0.064 | 3.04 ± 0.047 | 2.94 ± 0.059
11 | FTCSCNSLTVDGNNANY [RPN14] | 2.8 ± 0.074 | 2.81 ± 0.076 | 2.75 ± 0.044 | 2.69 ± 0.058
12 | FTGDFLRRVEERFTKSK [FAS1] | 3.29 ± 0.14 | 3.6 ± 0.16 | 2.78 ± 0.27 | 3.19 ± 0.083
13 | FTIDAKPPISDSVFSFG [YLR335W/NUP2] | 3.13 ± 0.054 | 2.75 ± 0.047 | 2.69 ± 0.042 | 2.73 ± 0.051
14 | FTLKQWNRLTISVTDTE [COR1] | 1.32 ± 0.049 | 1.22 ± 0.04 | 1.12 ± 0.047 | 1.14 ± 0.072
15 | FTNLGIIVQYLTKFRQK [RGR1] | 2.46 ± 0.053 | 2.64 ± 0.087 | 2.28 ± 0.07 | 2.35 ± 0.066
16 | FTNRIPSKTPEVYMRYR [SWI3] | 2.08 ± 0.052 | 1.88 ± 0.057 | 2.03 ± 0.054 | 2.35 ± 0.068
17 | FTPEEEAAIRRENEWAE [SKP1] | 3.01 ± 0.11 | 3.25 ± 0.096 | 3.3 ± 0.11 | 3.34 ± 0.063
18 | FTPKLIYDFITLFSSIE [ECM29] | 2.06 ± 0.073 | 2.1 ± 0.056 | 2.38 ± 0.053 | 2.17 ± 0.11
19 | FTQPALTLMEKAAFEDL [FAS1] | 2.74 ± 0.1 | 2.33 ± 0.078 | 2.9 ± 0.07 | 2.77 ± 0.091
20 | FTVNVLYPDSSSFKKNL [RPN3] | 2.08 ± 0.057 | 2.59 ± 0.067 | 2.44 ± 0.057 | 2.55 ± 0.063
21 | FVDLVEHFLKLNIDFGS [YML103C/NUP188] | 2.53 ± 0.067 | 2.46 ± 0.06 | 2.84 ± 0.094 | 2.54 ± 0.11
22 | FVPNDGCLNFVDENDEV [RPS23A] | 2.94 ± 0.063 | 3.04 ± 0.071 | 2.65 ± 0.055 | 2.78 ± 0.05
23 | FVPVPSLAGFHKVQTKL [RPS7A] | 2.53 ± 0.075 | 2.71 ± 0.081 | 2.75 ± 0.088 | 2.52 ± 0.073
24 | FYLYMLVQKFGGADQVT [SWI1] | – | 1.35 ± 0.19 | 1.75 ± 0.14 | –
25 | FYMLNAGIRPKFILALN [RPN1] | 2.22 ± 0.16 | 1.81 ± 0.078 | 1.37 ± 0.058 | 1.78 ± 0.085
26 | GAAGAWMMNGALQILNS [FAS2] | 1.48 ± 0.046 | 1.65 ± 0.064 | 1.68 ± 0.057 | 2.08 ± 0.12
